In assay [1] the target is T1, human FcεRIα protein (alpha chain of the high affinity IgE receptor) (human, UniProt P12319 26-201).
T1 construct: Purified soluble protein used in solution; The embodiments and claims speak of the extracellular region 1-176
T1 sequence (looked up): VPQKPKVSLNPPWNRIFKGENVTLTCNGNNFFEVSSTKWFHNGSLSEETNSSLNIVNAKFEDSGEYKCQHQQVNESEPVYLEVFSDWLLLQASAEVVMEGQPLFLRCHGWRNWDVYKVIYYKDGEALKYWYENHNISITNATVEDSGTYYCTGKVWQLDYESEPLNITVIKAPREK
The assay can be described thus: fluorescence quenching receptor binding titration, 96-well plate. As to the method:
Binding buffer conditions were optimized to improve reproducibility of the binding assay in a 96-well plate format.
(§1) Fluorescence Measurement. Samples were monitored by fluorescence using a Synergy 4 Fluorometer (BioTek) in black 96-well Costar fluorescence plates (Corning). […] The read-type for typical measurements was Endpoint. All measurements were recorded in duplicate.

Assay [2] has as its target T1, human FcεRIα protein (alpha chain of …). The assay can be described thus: fluorescence quenching competition assay; competitor of 488-labeled 367C IgE-Fc for FcεRIα. As to the method:
Initial experiments were conducted with unlabeled IgE-Fc as the competitor.
as §1

Consider 2 molecules from patent US20110281365A1 (Stanford University, published 2011).

B1: Alexa Fluor 488-labeled 367C IgE-Fc (human IgE-Fc Cε3-Cε4 C328A/K367C double mutant) (other)
chain: ADPAADSNPRGVSAYLSRPSPFDLFIRKSPTITCLVVDLAPSCGTVNLTWSRASGKPVNHSTRKEEKQRNGTLTVTSTLPVGTRDWIEGETYQCRVTHPHLPRALMRSTTKTSGPRAAPEVYAFATPEWPGSRDKRTLACLIQNFMPEDISVQWLHNEVQLPDARHSTTQPRKTKGSGFFVFSRLEVTRAEWEQKDEFICRAVHEAASPSQTVQRAVSVNPGKAADDDDKRYLDPAFLYKVRMNEDLGKPIPNPLLGLDSTRTGHHHHHH
modifications: Alexa Fluor 488 maleimide dye on Cys 367 (Dorrington and Bennich numbering)
notes: Expressed in insect cells; also called labeled IgE-Fc
Turning to B1, the Kd (as a rule, the concentration at which binding is half-saturated) in assay [1] was around 22 nM.

B2: unlabeled wild type IgE-Fc (human IgE-Fc Cε3-Cε4) (other)
chain: ADPCADSNPRGVSAYLSRPSPFDLFIRKSPTITCLVVDLAPSKGTVNLTWSRASGKPVNHSTRKEEKQRNGTLTVTSTLPVGTRDWIEGETYQCRVTHPHLPRALMRSTTKTSGPRAAPEVYAFATPEWPGSRDKRTLACLIQNFMPEDISVQWLHNEVQLPDARHSTTQPRKTKGSGFFVFSRLEVTRAEWEQKDEFICRAVHEAASPSQTVQRAVSVNPGK
notes: also called unlabeled IgE-Fc; unlabeled IgE
For the molecule B2, the EC50 (usually the concentration at which the effect is half-maximal) in assay [2] was around 75 nM.
